# Results taken from patent publication US20200040059A1.
# T1: CD226 (human) (UniProt Q15762)
# T1 sequence: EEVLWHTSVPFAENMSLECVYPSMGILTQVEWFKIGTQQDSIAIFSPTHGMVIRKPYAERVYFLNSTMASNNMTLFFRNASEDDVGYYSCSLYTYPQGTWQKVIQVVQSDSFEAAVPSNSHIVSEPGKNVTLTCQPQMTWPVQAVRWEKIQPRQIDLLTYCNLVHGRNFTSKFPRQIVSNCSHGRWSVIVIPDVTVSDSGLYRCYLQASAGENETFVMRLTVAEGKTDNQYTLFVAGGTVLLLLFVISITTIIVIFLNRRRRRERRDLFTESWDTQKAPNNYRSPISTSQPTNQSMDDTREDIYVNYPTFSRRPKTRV
# T2: CD96 (UniProt P40200)
# T2 sequence (looked up): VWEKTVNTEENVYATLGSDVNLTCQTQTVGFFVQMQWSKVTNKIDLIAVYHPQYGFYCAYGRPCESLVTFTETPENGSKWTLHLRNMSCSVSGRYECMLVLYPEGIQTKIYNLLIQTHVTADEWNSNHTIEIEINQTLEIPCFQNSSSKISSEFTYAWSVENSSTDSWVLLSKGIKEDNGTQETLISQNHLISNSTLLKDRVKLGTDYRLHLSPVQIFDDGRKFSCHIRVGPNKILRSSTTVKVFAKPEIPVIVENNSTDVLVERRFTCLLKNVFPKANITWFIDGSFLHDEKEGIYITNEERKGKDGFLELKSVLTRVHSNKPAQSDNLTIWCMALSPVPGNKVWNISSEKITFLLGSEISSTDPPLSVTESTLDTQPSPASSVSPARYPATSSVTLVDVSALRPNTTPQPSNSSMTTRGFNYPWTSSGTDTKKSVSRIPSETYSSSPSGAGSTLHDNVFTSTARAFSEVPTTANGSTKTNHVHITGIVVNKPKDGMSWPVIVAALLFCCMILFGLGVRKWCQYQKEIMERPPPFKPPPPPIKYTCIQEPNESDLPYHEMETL
# Experiments:
# CD226 (human) [1] = target: T1, CD226 (human); experiment: flow cytometry, CD226-expressing cells
# CD96 [2] = target: T2, CD96; experiment: flow cytometry, CD96-expressing cells
# CD96 [3] = target: T2, CD96; experiment: flow cytometry, cells
# CD226 (human) [4] = target: T1, CD226 (human); experiment: flow cytometry, transfected cells
Binder,MFI at 11.1 nM (CD226 (human) [1]) [MFI],MFI at 11.1 nM (CD96 [2]) [MFI],MFI at 100 nM (CD96 [2]) [MFI],MFI (CD96 [3]),MFI (CD226 (human) [4])
"CD155 P18T, F91S, F108L IgV-Fc (Fc fusion, not shown: a dimerising Fc or GST; small tags and cut ends) PGTGDVVVQAPTQVTGFLGDSVTLPCYLQVPNMEVTHVSQLTWARHGESGSMAVFHQTQGPSYSESKRLEFVAARLGAELRNASLRMSGLRVEDEGNYTCLFVTLPQGSRSVDIWL",,,,193000,395000
"CD155 P18T, F91S, G111D IgV-Fc (Fc fusion, not shown: a dimerising Fc or GST; small tags and cut ends) PGTGDVVVQAPTQVTGFLGDSVTLPCYLQVPNMEVTHVSQLTWARHGESGSMAVFHQTQGPSYSESKRLEFVAARLGAELRNASLRMSGLRVEDEGNYTCLFVTFPQDSRSVDIWL",,,,168000,438000
"CD155 P18S, Y30C, F91S IgV-Fc (Fc fusion, not shown: a dimerising Fc or GST; small tags and cut ends) PGTGDVVVQAPTQVSGFLGDSVTLPCCLQVPNMEVTHVSQLTWARHGESGSMAVFHQTQGPSYSESKRLEFVAARLGAELRNASLRMSGLRVEDEGNYTCLFVTFPQGSRSVDIWL",,,,56900,382000
"CD155 P18S, F91S, L104P IgV-Fc (Fc fusion, not shown: a dimerising Fc or GST; small tags and cut ends) PGTGDVVVQAPTQVSGFLGDSVTLPCYLQVPNMEVTHVSQLTWARHGESGSMAVFHQTQGPSYSESKRLEFVAARLGAELRNASLRMSGLRVEDEGNYTCPFVTFPQGSRSVDIWL",,,,10900,26200
"CD155 A56V IgV-Fc (Fc fusion, not shown: a dimerising Fc or GST; small tags and cut ends) PGTGDVVVQAPTQVPGFLGDSVTLPCYLQVPNMEVTHVSQLTWARHGESGSMVVFHQTQGPSYSESKRLEFVAARLGAELRNASLRMFGLRVEDEGNYTCLFVTFPQGSRSVDIWL",,,,161000,455000
"CD155 P18T, F91S IgV-Fc (Fc fusion, not shown: a dimerising Fc or GST; small tags and cut ends) PGTGDVVVQAPTQVTGFLGDSVTLPCYLQVPNMEVTHVSQLTWARHGESGSMAVFHQTQGPSYSESKRLEFVAARLGAELRNASLRMSGLRVEDEGNYTCLFVTFPQGSRSVDIWL",,,,158000,401000
"CD155 P18S, P64S, F91S IgV-Fc (Fc fusion, not shown: a dimerising Fc or GST; small tags and cut ends) PGTGDVVVQAPTQVSGFLGDSVTLPCYLQVPNMEVTHVSQLTWARHGESGSMAVFHQTQGSSYSESKRLEFVAARLGAELRNASLRMSGLRVEDEGNYTCLFVTFPQGSRSVDIWL",,,,140000,498000
"CD155 L88P IgV-Fc (Fc fusion, not shown: a dimerising Fc or GST; small tags and cut ends) PGTGDVVVQAPTQVPGFLGDSVTLPCYLQVPNMEVTHVSQLTWARHGESGSMAVFHQTQGPSYSESKRLEFVAARLGAELRNASPRMFGLRVEDEGNYTCLFVTFPQGSRSVDIWL",,,,35300,65100

# Second part, the binder after the results:
MFI at 11.1 nM (CD226 (human) [1]) [MFI],MFI at 11.1 nM (CD96 [2]) [MFI],MFI at 100 nM (CD96 [2]) [MFI],MFI (CD96 [3]),MFI (CD226 (human) [4]),Binder
987,,,,,"CD155 variant IgV-Fc P18T, D23G, S24A, N35D, H49L, L79P, F91S, L104M, G111R (Fc fusion, not shown: a dimerising Fc or GST; small tags and cut ends) PGTGDVVVQAPTQVTGFLGGAVTLPCYLQVPDMEVTHVSQLTWARLGESGSMAVFHQTQGPSYSESKRLEFVAARPGAELRNASLRMSGLRVEDEGNYTCMFVTFPQRSRSVDIWL"
986,959,,,,"CD155 variant IgV-Fc V9L, P18S, Q60R, V75L, L79P, R89K, F91S, L104E, G111R (Fc fusion, not shown: a dimerising Fc or GST; small tags and cut ends) PGTGDLVVQAPTQVSGFLGDSVTLPCYLQVPNMEVTHVSQLTWARHGESGSMAVFHRTQGPSYSESKRLEFLAARPGAELRNASLKMSGLRVEDEGNYTCEFVTFPQRSRSVDIWL"
,,22800,,,"CD155 variant IgV-Fc P18T, T45Q, T61R, S65N, S67L (Fc fusion, not shown: a dimerising Fc or GST; small tags and cut ends) PGTGDVVVQAPTQVTGFLGDSVTLPCYLQVPNMEVTHVSQLQWARHGESGSMAVFHQRQGPNYLESKRLEFVAARLGAELRNASLRMFGLRVEDEGNYTCLFVTFPQGSRSVDIWL"
,,,22700,38500,"CD155 P18T, F91S, V115A IgV-Fc (Fc fusion, not shown: a dimerising Fc or GST; small tags and cut ends) PGTGDVVVQAPTQVTGFLGDSVTLPCYLQVPNMEVTHVSQLTWARHGESGSMAVFHQTQGPSYSESKRLEFVAARLGAELRNASLRMSGLRVEDEGNYTCLFVTFPQGSRSADIWL"
,,,191000,436000,"CD155 P18T, T45A, F91S IgV-Fc (Fc fusion, not shown: a dimerising Fc or GST; small tags and cut ends) PGTGDVVVQAPTQVTGFLGDSVTLPCYLQVPNMEVTHVSQLAWARHGESGSMAVFHQTQGPSYSESKRLEFVAARLGAELRNASLRMSGLRVEDEGNYTCLFVTFPQGSRSVDIWL"
